Source: patent publication US20060094013

T1: peptide p300 [84-93 (S89A)], Q09472
T1 chain: LLRSGASPNL


Legend:
[1] = molecular target: GST-Syntide 2 [GST: P08515]
[2] = molecular target: SIK1 substrate mutant (R575A) wherein arginine at position 575 is substituted with alanine
[3] = molecular target: SIK1 substrate mutant (R574A) wherein arginine at position 574 is substituted with alanine
[4] = molecular target: SIK1 substrate mutant (R574/575A) wherein arginines at positions 574 and 575 are substituted with alanines
[5] = molecular target: wild-type SIK1 peptide not phosphorylated by PKA (on GST as carrier protein) [GST: P08515]
[6] = molecular target: SIK1 peptide wherein serine at position 577 is substituted with alanine (on GST as carrier protein) [GST: P08515]
[7] = molecular target: T1, peptide p300 [84-93 (S89A)], Q09472

Chain of GST-Syntide 2 [GST: P08515] (P08515 whole entry, looked up): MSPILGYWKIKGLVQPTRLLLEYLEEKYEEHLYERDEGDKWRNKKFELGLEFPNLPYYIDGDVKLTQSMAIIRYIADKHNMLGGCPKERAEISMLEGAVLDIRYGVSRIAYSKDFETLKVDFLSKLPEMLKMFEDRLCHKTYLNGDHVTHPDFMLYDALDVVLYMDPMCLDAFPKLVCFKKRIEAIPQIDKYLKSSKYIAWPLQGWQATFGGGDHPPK
Chain of SIK1 peptide wherein serine at position 577 is substituted with alanine (on GST as carrier protein) [GST: P08515] (P08515 whole entry, looked up): as above
Chain of wild-type SIK1 peptide not phosphorylated by PKA (on GST as carrier protein) [GST: P08515] (P08515 whole entry, looked up): as above

Protein | protein-phosphorylating activity (32P intake, SDS-PAGE) [1] | phosphorylation of the substrate (32P) [2] | phosphorylation of the substrate (32P) [3] | phosphorylation of the substrate (32P) [4] | phosphorylation of the substrate (32P) [5] | phosphorylation of the substrate (32P) [6] | enzyme activity of SIK (phosphorylation of Syntide 2) [7] | phosphorylation by SIK [7]
GST-rat SIK1 (protein) MVIMSEFSAVPTGTGQGQQKPLRVGFYDVERTLGKGNFAVVKLARHRVTKTQVAIKIIDKTRLDSSNLEKIYREVQLMKLLNHPNIIKLYQVMETKDMLYIVTEFAKNGEMFDYLTSNGHLSENEARKKFWQILSAVEYCHNHHIVHRDLKTENLLLDGNMDIKLADFGFGNFYKPGEPLSTWCGSPPYAAPEVFEGKEYEGPQLDIWSLGVVLYVLVCGSLPFDGPNLPTLRQRVLEGRFRIPFFMSQDCETLIRRMLVVDPAKRITIAQIRQHRWMQADPTLLQQDDPAFSMQGYTSNLGDYNEQVLGIMQALGIDRQRTVESLQNSSYNHFAAIYYLLLERLREHRSTQPSSRATPAPARQPQLRNSDLSSLEVPQEILPCDPFRPSLLCPQPQALAQSVLQAEIDCDLHSSLQPLFFPLDTNCSGVFRHRSISPSSLLDTAISEEARQGPSLEEEQEVQEPLPGSTGRRHTLAEVSTHFSPLNPPCIIVSSSAAVSPSEGTSSDSCLPFSASEGPAGLGGGLATPGLLGTSSPVRLASPFLGSQSATPVLQSQAGLGATVLPPVSFQEGRRASDTSLTQGLKAFRQQLRKNARTKGFLGLNKIKGLARQVCQSSIRGSRGGMSTFHTPAPSSGLQGCTASSREGRSLLEEVLHQQRLLQLQHHSAVSSDYQQAPQLSPVPYVLTPCDGLLVSGIPLLPTPLLQPGMSPVASAAQLLDAHLHISAGPVALPTGPLPQCLTRLSPSCDPAGLPQGDCEMEDLTSGQRGTFVLVQ | GST-rat SIK1 and GST-rat SIK1 (K56M) were subjected to the same experiment. Consequently, the same results were obtained. | the mutant R575A was phosphorylated much more efficiently than the case of the wild-type SIK1 | the mutants S577A, R574A, and R574/575A were not phosphorylated | the mutants S577A, R574A, and R574/575A were not phosphorylated | the wild-type SIK1 was phosphorylated | the mutants S577A, R574A, and R574/575A were not phosphorylated |  | 
GST-mSIK2 (protein) MVMADGPRHLQRGPVRVGFYDIEGTLGKGNFAVVKLGRHRTTKTEVAIKIIDKSQLDAVNLEKIYREVQIMKMLDHPHIIKLYQVMETKSMLYLVTEYAKNGEIFDYLANHGRLNESEARRKFWQILSAVDYCHGRKVVHRDLKAENLLLDNNMNIKIADFGFGNFFKTGELLATWCGSPPYAAPEVFEGQQYEGPQLDIWSMGVVLYVLVCGALPFDGPTLPILRQRVLEGRFRIPYFMSEDCEHLIRRMLVLDPSKRLSIAQIKEHKWMLIEVPVQRPILYPQEQENEPSIGEFNEQVLRLMHSLGIDQQKTVESLQNKSYNHFAAIYFLLVERLKSHRSSFPVEQRLDGRQRRPSTIAEQTVAKAQTVGLPVTLHPPNVRLMRSTLLPQASNVEAFSFPTSSCQAEAAFMEEECVDTPKVNGCLLDPVPPVLVRKGCQSLPSSMMETSIDEGLETEGEAEEDPSQAFEAFQATRSGQRRHTLSEVTNQLVVMPGAGKMFSMSDNPSLESVDSEYDMGSAQRDLNFLEDSPSLKDIMLANQPSPRMTSPFISLRPANPAMQALSSQKREAHNRSPVSFREGRRASDTSLTQGIVAFRQHLQNLARTKGILELNKVQLLYEQMGSNADPTLTSTAPQLQDLSSSCPQEEISQQQESVSSLSASMHPQLSPQQSLETQYLQHRLQKPNLLPKAQSPCPVYCKEPPRSLEQQLQEHRLQQKRLFLQKQSQLQAYFNQMQIAESSYPGPSQQLALPHQETPLTSQQPPSFSLTQALSPVLEPSSEQMQFSSFLSQYPEMQLQPLPSTPGPRAPPPLPSQLQQHQQPPPPPPPPPPQQPGAAPTSLQFSYQTCELPSTTSSVPNYPASCHYPVDGAQQSNLTGADCPRSSGLQDTASSYDPLALSELPGLFDCEMVEAVDPQHNGVVSCLARET | wild-type GST-mSIK2 has an auto-phosphorylating activity and an activity of phosphorylating GST-Syntide 2 |  |  |  |  |  | the unphosphorylated peptide p300 wherein serine at position 89 is substituted with alanine inhibits the enzyme activity of SIK | a peptide wherein serine at position 89 in p300 is substituted with alanine becomes unphosphorylated
